Assay results: article PMC9536202

Tests used:
MakA^W243D = experiment: SEC
[1] = biological target: Motility associated killing factor A (MakA), wild type; experiment: SEC

| Substance | percent oligomer (MakA^W243D) [%] | percent monomer [1] [%] | percent oligomer [1] [%] |
| --- | --- | --- | --- |
| MakA^W243D (natural protein) | 100 | – | – |
| Motility associated killing factor A (MakA), wild type (natural protein) | – | 80 | 20 |
